# Laboratory results taken from US20100041596A1 (published 2010).
# B1: p60ΔCD-HA K32A (receptor, not shown: small tags and cut ends)
# chain: LVPHLGDREKRDSVCPQGKYIHPQNNSICCTACHKGTYLYNDCPGPGQDTDCRECESGSFTASENHLRHCLSCSKCRKEMGQVEISSCTVDRDTVCGCRKNQYRHYWSENLFQCFNCSLCLNGTVHLSCQEKQNTVCTCHAGFFLRENECVSCSNCKKSLECTKLCLPQIENVKGTEDSGTTVLLPLVIFFGLCLLSLLFIGLMYRYQRWK
# notes: Mutant of p60ΔCD-HA; numbers count on mature p60
# Tests used:
# [1] = target: T1, p60ΔCD-GFP-HA (UniProt P42212 1-238 = GFP, limits assumed); test: co-immunoprecipitation in 293T transient transfections
# T1 construct: GFP introduced in-frame into p60ΔCD-HA; p60 limits deduced as for p60ΔCD-HA; also called chimeric p60 receptor with the cytoplasmic domain replaced by GFP
# Description: The PCR product was digested with BamHI and EcoRI and cloned into pcDNA3. The PCR fragments containing the receptor fragments were then introduced into this plasmid using the EcoRI and XhoI sites. For the GFP/CFP/YFP chimeras, the fragments were amplified by PCR and introduced in-frame into the XhoI and XbaI sites of p60ΔCD-HA. 293T cells were transfected with Fugene 6 (Boehringer Mannheim) as per manufacturer's protocol. Cells were lysed in 150 mM NaCl, 20 mM Tris.Cl [pH 7.5], 1 mM EDTA, 30 mM NaF, 2 mM β-glycerophosphate, 1 mM sodium orthovanadate, 5 mM iodoacetamide, 2 mM dithiothreitol (DTT), 1% TRITON X-100 and protease inhibitors (Boehringer Mannheim). After pre-clearing with protein G agarose beads (Boehringer Mannheim) and normal mouse IgG, proteins were immunoprecipitated from the lysates with […] anti-GFP and protein G agarose beads. Immune complexes were washed twice with lysis buffer containing 0.5 M NaCl and then three times with regular lysis buffer. Immune-complexes were resolved on Tris/Glycine gels (Novex).
# [2] = target: T2, TNFα, biotinylated form (human, UniProt P01375 77-233, biotinylated); test: biotinylated TNFα staining normalized to HA staining
# T2 construct: also called biotinylated human TNF-α; Bt-TNF-α
# T2 sequence (P01375 77-233 limits assumed): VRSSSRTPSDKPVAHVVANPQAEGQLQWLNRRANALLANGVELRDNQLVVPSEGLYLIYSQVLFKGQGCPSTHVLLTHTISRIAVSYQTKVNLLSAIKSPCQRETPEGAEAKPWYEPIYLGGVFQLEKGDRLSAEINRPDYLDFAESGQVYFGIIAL
binder,measurement,setting,value
B1,binding result,[1],no binding
same,binding result,[2],no binding
